What all share (assay): cleavage_in_vitro
For series [1], the system named is T1, OMNI-53 TXTL (Clostridium sp. AF02-29).
T1 sequence: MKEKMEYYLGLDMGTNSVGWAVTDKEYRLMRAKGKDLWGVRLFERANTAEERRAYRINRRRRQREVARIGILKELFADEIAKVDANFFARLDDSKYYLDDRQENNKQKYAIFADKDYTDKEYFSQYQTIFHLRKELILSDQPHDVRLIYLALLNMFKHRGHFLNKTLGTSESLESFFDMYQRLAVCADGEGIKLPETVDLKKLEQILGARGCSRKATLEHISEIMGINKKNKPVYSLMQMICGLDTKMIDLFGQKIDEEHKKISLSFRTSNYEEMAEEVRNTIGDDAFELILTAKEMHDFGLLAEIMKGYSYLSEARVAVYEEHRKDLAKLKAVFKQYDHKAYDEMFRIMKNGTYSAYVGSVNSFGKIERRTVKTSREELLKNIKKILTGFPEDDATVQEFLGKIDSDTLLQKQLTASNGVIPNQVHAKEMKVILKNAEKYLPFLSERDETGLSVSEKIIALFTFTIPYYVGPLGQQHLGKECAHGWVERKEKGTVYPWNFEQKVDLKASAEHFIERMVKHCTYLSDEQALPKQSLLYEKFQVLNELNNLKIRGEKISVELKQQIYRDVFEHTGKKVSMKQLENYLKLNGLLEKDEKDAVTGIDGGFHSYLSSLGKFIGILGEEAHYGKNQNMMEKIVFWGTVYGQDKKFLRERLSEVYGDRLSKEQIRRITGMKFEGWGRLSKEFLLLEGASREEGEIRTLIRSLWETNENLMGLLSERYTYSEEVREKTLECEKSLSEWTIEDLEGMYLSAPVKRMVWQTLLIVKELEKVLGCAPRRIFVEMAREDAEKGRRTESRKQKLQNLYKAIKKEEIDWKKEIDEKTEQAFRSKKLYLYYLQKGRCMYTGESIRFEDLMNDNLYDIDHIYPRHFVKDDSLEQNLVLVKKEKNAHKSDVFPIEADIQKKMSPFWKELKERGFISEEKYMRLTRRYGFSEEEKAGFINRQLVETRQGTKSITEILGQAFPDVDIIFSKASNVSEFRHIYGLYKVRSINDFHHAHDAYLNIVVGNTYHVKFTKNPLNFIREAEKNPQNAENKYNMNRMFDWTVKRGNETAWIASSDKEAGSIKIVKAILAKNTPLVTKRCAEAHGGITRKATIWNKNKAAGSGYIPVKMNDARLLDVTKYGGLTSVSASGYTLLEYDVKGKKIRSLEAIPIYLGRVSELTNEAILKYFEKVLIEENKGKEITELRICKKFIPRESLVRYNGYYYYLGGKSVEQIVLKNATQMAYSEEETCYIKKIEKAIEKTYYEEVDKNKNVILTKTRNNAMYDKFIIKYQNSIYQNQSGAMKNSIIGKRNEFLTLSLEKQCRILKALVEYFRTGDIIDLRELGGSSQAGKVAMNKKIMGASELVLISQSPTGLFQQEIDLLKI
The conditions noted are these: PAM NRHR general, NAWA specific.

For series [2], the system named is T2, OMNI-50 TXTL (Ezakiella peruensis strain M6.X2).
T2 sequence: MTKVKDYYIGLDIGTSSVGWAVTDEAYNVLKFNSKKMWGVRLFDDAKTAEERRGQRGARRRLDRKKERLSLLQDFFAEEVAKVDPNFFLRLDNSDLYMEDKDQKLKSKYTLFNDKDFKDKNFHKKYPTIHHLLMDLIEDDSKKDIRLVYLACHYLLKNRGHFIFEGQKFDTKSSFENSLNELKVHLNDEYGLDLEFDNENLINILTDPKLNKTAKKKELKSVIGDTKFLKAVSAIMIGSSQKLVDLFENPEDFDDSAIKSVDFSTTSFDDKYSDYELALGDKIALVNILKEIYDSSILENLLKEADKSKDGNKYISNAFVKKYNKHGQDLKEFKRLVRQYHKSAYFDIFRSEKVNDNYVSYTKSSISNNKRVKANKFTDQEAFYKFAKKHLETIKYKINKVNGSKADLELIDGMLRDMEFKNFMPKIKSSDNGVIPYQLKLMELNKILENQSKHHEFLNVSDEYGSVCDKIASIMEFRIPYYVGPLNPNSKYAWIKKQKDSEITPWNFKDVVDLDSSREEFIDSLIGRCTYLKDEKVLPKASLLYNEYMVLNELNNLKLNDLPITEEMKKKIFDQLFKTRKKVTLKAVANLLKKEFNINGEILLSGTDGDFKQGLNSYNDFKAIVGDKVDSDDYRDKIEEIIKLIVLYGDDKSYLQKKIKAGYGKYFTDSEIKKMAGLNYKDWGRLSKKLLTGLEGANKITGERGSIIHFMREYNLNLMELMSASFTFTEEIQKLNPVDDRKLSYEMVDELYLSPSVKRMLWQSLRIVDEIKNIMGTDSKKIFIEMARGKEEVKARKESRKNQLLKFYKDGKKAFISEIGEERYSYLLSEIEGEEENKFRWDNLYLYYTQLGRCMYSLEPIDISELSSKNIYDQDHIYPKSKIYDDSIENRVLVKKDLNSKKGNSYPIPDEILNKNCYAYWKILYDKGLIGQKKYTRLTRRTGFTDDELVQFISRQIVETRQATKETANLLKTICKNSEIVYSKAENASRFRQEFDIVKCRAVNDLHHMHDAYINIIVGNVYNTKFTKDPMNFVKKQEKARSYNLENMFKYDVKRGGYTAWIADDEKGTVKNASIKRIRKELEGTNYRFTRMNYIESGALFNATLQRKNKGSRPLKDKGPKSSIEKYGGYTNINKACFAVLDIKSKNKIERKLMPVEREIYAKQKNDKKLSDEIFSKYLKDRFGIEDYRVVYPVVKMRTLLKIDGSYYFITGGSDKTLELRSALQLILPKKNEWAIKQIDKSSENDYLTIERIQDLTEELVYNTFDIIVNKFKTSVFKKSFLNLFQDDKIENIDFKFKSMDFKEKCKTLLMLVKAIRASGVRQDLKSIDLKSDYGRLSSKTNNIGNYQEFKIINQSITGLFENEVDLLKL
The conditions noted are these: PAM NGG.

Series [3] concerns T3, OMNI-39 TXTL (Butyrivibrio sp. AC2005).
T3 sequence: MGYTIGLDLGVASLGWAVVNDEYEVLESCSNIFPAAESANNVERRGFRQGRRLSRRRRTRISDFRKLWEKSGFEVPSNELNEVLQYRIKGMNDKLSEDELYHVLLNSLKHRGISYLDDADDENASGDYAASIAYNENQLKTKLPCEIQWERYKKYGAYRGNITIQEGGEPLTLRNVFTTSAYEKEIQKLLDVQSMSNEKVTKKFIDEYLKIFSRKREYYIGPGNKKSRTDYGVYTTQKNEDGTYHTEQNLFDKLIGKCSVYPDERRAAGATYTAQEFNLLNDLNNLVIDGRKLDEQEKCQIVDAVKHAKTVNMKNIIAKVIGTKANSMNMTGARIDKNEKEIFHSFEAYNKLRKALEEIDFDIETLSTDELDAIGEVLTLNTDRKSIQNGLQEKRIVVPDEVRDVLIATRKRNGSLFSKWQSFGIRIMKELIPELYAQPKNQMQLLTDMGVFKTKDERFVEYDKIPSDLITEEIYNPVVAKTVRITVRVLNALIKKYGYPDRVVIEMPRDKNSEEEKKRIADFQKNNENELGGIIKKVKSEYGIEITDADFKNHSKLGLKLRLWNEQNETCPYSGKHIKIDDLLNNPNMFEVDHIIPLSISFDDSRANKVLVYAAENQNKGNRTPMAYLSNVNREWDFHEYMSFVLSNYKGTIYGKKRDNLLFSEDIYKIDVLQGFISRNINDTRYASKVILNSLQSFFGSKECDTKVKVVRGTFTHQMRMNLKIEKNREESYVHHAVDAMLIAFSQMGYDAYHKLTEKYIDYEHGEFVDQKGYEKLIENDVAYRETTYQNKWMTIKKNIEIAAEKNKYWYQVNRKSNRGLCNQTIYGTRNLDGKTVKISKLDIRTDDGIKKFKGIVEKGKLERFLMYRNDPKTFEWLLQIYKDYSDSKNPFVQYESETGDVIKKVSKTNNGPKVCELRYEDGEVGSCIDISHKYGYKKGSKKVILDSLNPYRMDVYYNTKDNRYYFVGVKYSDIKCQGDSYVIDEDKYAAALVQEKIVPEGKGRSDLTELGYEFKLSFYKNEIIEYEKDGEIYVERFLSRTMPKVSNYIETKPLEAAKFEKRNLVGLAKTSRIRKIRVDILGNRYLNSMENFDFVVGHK
The conditions noted are these: PAM NNGHAD general, NNGYAA specific.

For series [4], the system named is T4, OMNI-40 TXTL (Aliiarcobacter faecis).
T4 sequence: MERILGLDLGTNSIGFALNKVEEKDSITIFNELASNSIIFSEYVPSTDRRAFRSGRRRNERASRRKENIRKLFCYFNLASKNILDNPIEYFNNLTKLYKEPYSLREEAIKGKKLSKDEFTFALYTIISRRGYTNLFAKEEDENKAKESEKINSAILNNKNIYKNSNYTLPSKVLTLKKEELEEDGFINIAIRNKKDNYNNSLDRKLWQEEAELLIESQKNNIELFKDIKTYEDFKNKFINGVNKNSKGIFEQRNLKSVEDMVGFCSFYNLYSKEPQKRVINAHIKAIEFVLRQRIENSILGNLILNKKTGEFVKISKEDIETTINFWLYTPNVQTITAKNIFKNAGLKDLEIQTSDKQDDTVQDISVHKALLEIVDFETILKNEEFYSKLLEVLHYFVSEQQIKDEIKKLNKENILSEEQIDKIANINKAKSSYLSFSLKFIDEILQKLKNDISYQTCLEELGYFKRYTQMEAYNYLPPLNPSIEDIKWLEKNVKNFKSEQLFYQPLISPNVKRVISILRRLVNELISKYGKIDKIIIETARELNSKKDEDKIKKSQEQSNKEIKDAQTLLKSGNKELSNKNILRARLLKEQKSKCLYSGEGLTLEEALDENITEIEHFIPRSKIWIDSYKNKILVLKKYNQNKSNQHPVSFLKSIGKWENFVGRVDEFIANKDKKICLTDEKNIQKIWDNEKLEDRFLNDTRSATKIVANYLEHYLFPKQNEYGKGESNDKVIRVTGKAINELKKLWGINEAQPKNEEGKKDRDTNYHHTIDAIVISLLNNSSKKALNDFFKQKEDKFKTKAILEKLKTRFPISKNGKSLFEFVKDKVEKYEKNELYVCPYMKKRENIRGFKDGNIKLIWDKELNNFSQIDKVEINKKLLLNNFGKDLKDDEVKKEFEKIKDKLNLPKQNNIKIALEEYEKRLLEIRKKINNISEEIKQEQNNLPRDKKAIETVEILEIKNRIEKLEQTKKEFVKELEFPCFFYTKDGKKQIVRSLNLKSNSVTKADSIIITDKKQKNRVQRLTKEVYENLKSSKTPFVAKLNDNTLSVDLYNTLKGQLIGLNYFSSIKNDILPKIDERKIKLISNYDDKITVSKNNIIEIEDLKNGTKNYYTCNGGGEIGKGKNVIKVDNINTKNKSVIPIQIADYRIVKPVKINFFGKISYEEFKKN
The following applies: PAM NYGRV.

“GGAAGAGCAGAGCCUUGGUCUCGUUUGAGAACCAUGUAAGAAAUUACAUGGUGAGUGCAAAUAAGGAUUAUCCGAAAUUGUAUGCCCGCAUUGUGCGGCAAUAAAAAGGCUCGAAAGAGUCUUUUU / GGAAGAGCAGAGCCTTGGTCTCNNNNNNNN / NNNNNNNNGAGACCAAGGCTCTGCTCTTCC [T2 sgRNA V2 OMNI-53 ; T2 protospacer 8N PAM library]” came in with an activity (1-depletion score) in series [1] of 0.97.
Sequence “GGAAGAGCAGAGCCUUGGUCUCGUUUGAGAGUUAUGUAAGAAAUUACAUGACGAGUUCAAAUAAAAAUUUAUUCAAACCGCCUAUUUAUAGGCCGCAGAUGUUCUGCAUUAUGCUUGCUAUUGCAAGCUUUUUU / GGAAGAGCAGAGCCTTGGTCTCNNNNNNNN / NNNNNNNNGAGACCAAGGCTCTGCTCTTCC [T2 sgRNA V2 OMNI-50 ; T2 protospacer 8N PAM library]” yielded an activity (1-depletion score) in series [2] of 0.98.
Regarding “GGAAGAGCAGAGCCUUGGUCUCGUUUUAGUACCUAGAGAAAGAAAUUUCUUUAGACCUACUAAAAUAAGGCUUUAUGCCGAGAUUAAAGGAUGCCGACGGGCAUCCUUUUUU / GGAAGAGCAGAGCCTTGGTCTCNNNNNNNN / NNNNNNNNGAGACCAAGGCTCTGCTCTTCC [T2 sgRNA V2 OMNI-39 ; T2 protospacer 8N PAM library]”, the activity (1-depletion score) in series [3] was found to be 0.95.
“GGAAGAGCAGAGCCUUGGUCUCGUUUUGUUACCAUAUGAUUGAAAAUUUAUAUGACCUAACAAAACAAGGGUUUAUCCCGGACUCGGCUCUUCGGAGCCUUUUU / GGAAGAGCAGAGCCTTGGTCTCNNNNNNNN / NNNNNNNNGAGACCAAGGCTCTGCTCTTCC [T2 sgRNA V2 OMNI-40 ; T2 protospacer 8N PAM library]” displayed an activity (1-depletion score) in series [4] of 0.97.

The values are drawn from patent US20210130804.
